These results are taken from patent US20210017532A1 (INSTITUTE OF GENETICS AND DEVELOPMENTAL BIOLOGY CHINESE …, published 2021).

For data set [1], the system named is His-UBQ10.
The target of data set [2] is T1, Flag-OsSPL14, Q7EXZ2.
T1 chain: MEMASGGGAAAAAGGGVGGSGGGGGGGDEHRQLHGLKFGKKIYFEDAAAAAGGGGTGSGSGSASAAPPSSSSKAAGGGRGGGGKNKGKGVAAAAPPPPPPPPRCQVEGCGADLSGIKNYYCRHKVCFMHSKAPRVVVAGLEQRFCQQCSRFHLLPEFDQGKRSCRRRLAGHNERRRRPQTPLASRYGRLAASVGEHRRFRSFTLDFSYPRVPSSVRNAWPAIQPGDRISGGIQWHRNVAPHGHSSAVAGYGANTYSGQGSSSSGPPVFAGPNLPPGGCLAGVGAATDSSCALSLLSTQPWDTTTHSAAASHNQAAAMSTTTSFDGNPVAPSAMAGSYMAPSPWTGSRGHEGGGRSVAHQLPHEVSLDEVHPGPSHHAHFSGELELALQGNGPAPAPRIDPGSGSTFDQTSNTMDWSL

The target in data set [3] is linear K48-linked tetra-ubiquitin (Boston Biochem).
Data set [4] has as its target linear K63-linked tetra-ubiquitin (Boston Biochem).
Data set [5] addresses T2, recombinant GST-OsSPL14 fusion protein, Q7EXZ2.
T2 chain: T1 chain

Data set [6] deals with T3, full length OsUBC13 in pGADT7 (rice).
T3 construct: Yeast two-hybrid prey; not shown: fusion partner encoded by vector pGADT7
T3 chain: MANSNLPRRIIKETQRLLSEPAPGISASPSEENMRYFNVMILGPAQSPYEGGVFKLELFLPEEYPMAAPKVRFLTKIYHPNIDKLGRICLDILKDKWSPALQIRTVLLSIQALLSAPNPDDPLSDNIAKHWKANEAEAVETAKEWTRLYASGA
In words: yeast two-hybrid (pGBKT7 / pGADT7, strain AH109). On the procedure:
Yeast two-hybrid assays. Yeast two-hybrid assays were performed as described elsewhere^{14, 21}. The full length OsOTUB1.1 cDNA and an OsOTUB1 C-terminal fragment were amplified from ZH11 cDNA and inserted into pGBKT7 (Takara Bio Inc.), while the full length OsUBC13 cDNA and an OsSPL14 C-terminal fragment were inserted into pGADT7 (Takara Bio Inc.). Each of these plasmids was validated by sequencing before being transformed into yeast strain AH109. The required β-galactosidase assays were performed according to the manufacturer's (Takara Bio Inc.) protocol. Cells harboring either an empty pGBKT7 or an empty pGADT7 were used as the negative control. The entire OsOTUB1 sequence or a C-terminal fragment were used as the bait to screen a cDNA library prepared from poly(A)-containing RNA isolated from rice young panicles (<0.2 cm in length). The experimental procedures for screening and plasmid isolation followed the manufacturer's (Takara Bio Inc.) protocol.

Data set [7] concerns the target His-UBQ10. The source holds these as a separate data set.
Data set [8] deals with T4, YFP-fragment-tagged OsUBC13 (BiFC construct) (rice).
T4 construct: BiFC in rice protoplasts; not shown: YFP fragment from pSY-735-35S-cYFP-HA or pSY-736-35S-nYFP-EE
T4 chain: T3 chain
Description: BiFC in rice protoplasts.

Data set [9] deals with T5, N-terminus of YFP-tagged deleted version of OsSPL14 (rice, UniProt Q7EXZ2 1-417).
T5 construct: not shown: N-terminal fragment of YFP
T5 sequence (looked up): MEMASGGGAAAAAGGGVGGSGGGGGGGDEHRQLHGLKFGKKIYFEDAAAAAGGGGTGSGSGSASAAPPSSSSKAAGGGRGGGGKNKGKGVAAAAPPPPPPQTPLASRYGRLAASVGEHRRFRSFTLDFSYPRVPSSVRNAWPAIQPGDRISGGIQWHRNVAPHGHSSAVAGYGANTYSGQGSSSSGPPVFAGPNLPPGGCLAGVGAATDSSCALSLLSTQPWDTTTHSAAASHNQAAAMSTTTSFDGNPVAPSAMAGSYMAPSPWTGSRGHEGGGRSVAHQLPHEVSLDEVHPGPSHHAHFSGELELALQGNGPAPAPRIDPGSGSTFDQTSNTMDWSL
Description: BiFC in rice protoplasts with deleted versions of OsSPL14. From the text:
(a) BiFC assays. The N-terminus of YFP-tagged OsSPL14, SBP-domain or a deleted version of OsSPL14 was co-transformed into rice protoplasts along with the C-terminus of YFP-tagged OsOTUB1.1. Panels (from left to right): DAPI staining, YFP signal, differential interference contrast, merged channel. Scale bar: 10 μm. (b) Co-immunoprecipitation of OsOTUB1.1-GFP and OsSPL14. IB, Immunoblot; IP, immunoprecipitation. (c) Plant morphology. Scale bar: 20 cm. (d) Panicle morphology. Scale bar: 5 cm. (e) OsSPL14 transcript abundance. Transcription relative to the level of the ZH11 plants set to be one. Data shown as mean±s.e.m. (n=3). (f) The number of tillers per plant. (g) The number of grains per panicle. (h) Culm diameter. All phenotypic data were measured from the field-grown plants under normal cultivation conditions. Data in f-h shown as mean±s.e.m. (n=120). The presence of the same lowercase letter denotes a non-significant difference between means (P<0.05).

Data set [10] concerns the target T6, OsSPL14 (rice, UniProt Q7EXZ2 1-417).
T6 construct: also called SBP-domain transcription factor OsSPL14
T6 sequence (looked up): T1 chain
In words: summary sentence of Example 1.

Data set [11] deals with T7, OsUBC13 (rice).
T7 construct: Used for sentences that name OsUBC13 in general or cover several assay formats; also called E2 ubiquitin-conjugating protein
T7 chain: T3 chain
In words: summary sentence of Example 1.

Like-named read-outs stand apart in the source and are kept apart here.

In the case of MBP-WTG1^D68E;C71S;H267R, the “in vitro deubiquitination assay (cleavage of His-UBQ10, SDS-PAGE and anti-His blot)” value in data set [1] is “MBP-WTG1^wtg1-1, MBP-WTG1^D68E;C71S;H267R and MBP did not cleave His-UBQ10”.

B1: Myc-OsOTUB1.1 (protein)
chain: MGGDYYHSCCGDPDPDLRAPEGPKLPYVGDKEPLSTLAAEFQSGSPILQEKIKLLGEQYDALRRTRGDGNCFYRSFMFSYLEHILETQDKAEVERILKKIEQCKKTLADLGYIEFTFEDFFSIFIDQLESVLQGHESSIGAEELLERTRDQMVSDYVVMFFRFVTSGEIQRRAEFFEPFISGLTNSTVVQFCKASVEPMGEESDHVHIIALSDALGVPIRVMYLDRSSCDAGNISVNHHDFSPEANSSDGAAAAEKPYITLLYRPGHYDILYPK
With B1, in data set [2], the “accumulation of Flag-OsSPL14 in rice protoplasts (immunoblot)” value is reported as “Myc-OsOTUB1 promoted the degradation of Flag-OsSPL14 only in the presence of either WT-, K63O- or K48R-linked ubiquitins” and the “ubiquitination of Flag-OsSPL14 in rice protoplasts (anti-Flag IP, anti-HA blot)” value is listed as “In the presence of Myc-OsOTUB1.1, the titer of ubiquitinated Flag-OsSPL14 was clearly decreased in the presence of either K48R or K63O mutations, but it remained unaffected by the presence of either K48O or K63R mutations”.

B2: recombinant OsOTUB1.1 of the tetra-ubiquitin cleavage assay (protein)
chain: B1 chain
B2: the “cleavage of linear Lys48-linked tetra-ubiquitin (western blot, anti-ubiquitin)” value in [3] is given as “it showed a strong cleavage activity when presented with Lys48-linked tetra-ubiquitin”. In [4], the “cleavage of linear Lys63-linked tetra-ubiquitin (western blot, anti-ubiquitin)” value is listed as “it also displayed a moderate level of activity when presented with the Lys63-linked forms”.

B3: recombinant His-OsOTUB1 fusion protein (protein)
chain: B1 chain
Turning to B3, the “degradation of GST-OsSPL14 in young panicle lysates (anti-GST western blot over time)” value in data set [5] is given as “the degradation of GST-OsSPL14 was accelerated in lysates made from ZH11-npt1 panicles in the presence of His-OsOTUB1”.

B4: full length OsOTUB1.1 in pGBKT7 (enzyme)
chain: B1 chain
notes: Yeast two-hybrid bait; not shown: fusion partner encoded by vector pGBKT7
B4: in data set [6], the binding result is listed as “binds”.

B5: MBP-WTG1 (protein)
chain: B1 chain
As to B5, the “in vitro deubiquitination assay (cleavage of His-UBQ10, SDS-PAGE and anti-His blot)” value in [7] is on record as “MBP-WTG1 was capable of cleaving His-UBQ10”.

B6: C-terminus of YFP-tagged OsOTUB1.1 (enzyme)
chain: B1 chain
notes: BiFC construct expressed in rice protoplasts; also called cYFP-OsOTUB1; cYFP-OsOTUB1.1; not shown: C-terminal fragment of YFP from vector pSY-735-35S-cYFP-HA
Regarding B6, the results for the binding result in data set [8] and in [9] were “binds” and “no binding”, respectively.

B7: OsOTUB1 (enzyme)
chain: B1 chain
notes: Used for sentences that name OsOTUB1 in general or cover several assay formats; also called NPT1; DEP5
Take B7: the binding result in data set [10] and in [11] was “binds” throughout.
